What was measured:
HeLa Kyoto [1] = test: thermal stability score vs G1/S (z-score of summed log2 fold changes over temperatures); higher = more thermally stable than in G1/S
HeLa Kyoto [2] = test: solubility change mitosis vs G1/S (difference of NP-40 vs SDS log2 ratios) (log2 ratio difference); higher = more soluble in mitosis
HeLa Kyoto [3] = test: solubility in G1/S (NP-40 vs SDS abundance) (log2 ratio); higher = more soluble; settings: cell cycle stage: G1/S
HeLa Kyoto [4] = test: melting temperature (median over replicates), in situ; higher = more thermally stable
[5] = cell cycle stage: early G1 (4.5 h after nocodazole release)
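For melting temperature (median over replicates), in situ in this document: HeLa Kyoto cells synchronized by double thymidine or nocodazole block, proteins quantified by TMT10plex mass spectrometry, three independent biological replicates.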
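For solubility change mitosis vs G1/S (difference of NP-40 vs SDS log2 ratios) in this document: synchronized HeLa Kyoto cells (double thymidine block for G1/S, nocodazole release for mitosis), protein amounts in NP-40 versus SDS lysates quantified by mass spectrometry, three biological replicates.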
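For solubility in G1/S (NP-40 vs SDS abundance) in this document: HeLa Kyoto cells arrested at G1/S by double thymidine block, proteins quantified by TMT10plex mass spectrometry in mild NP-40 versus SDS extracts, three biological replicates.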
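For thermal stability score vs G1/S (z-score of summed log2 fold changes over temperatures) in this document: synchronized HeLa Kyoto cells, proteins quantified by TMT10plex mass spectrometry, three biological replicates, mitosis taken 0.5 h after nocodazole release, G1/S directly after double thymidine block.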

Sequence | thermal stability score (HeLa Kyoto [1]; [5]) | thermal stability score (HeLa Kyoto [1]; cell cycle stage: mitosis) | solubility change mitosis (log2) (HeLa Kyoto [2]) | solubility in G1/S (log2) (HeLa Kyoto [3]) | melting temperature (HeLa Kyoto [4]; cell cycle stage: G1/S) [°C] | melting temperature (HeLa Kyoto [4]; cell cycle stage: mitosis) [°C]
MWAVLRLALRPCARASPAGPRAYHGDSVASLGTQPDLGSALYQENYKQMKALVNQLHERVEHIKLGGGEKARALHISRGKLLPRERIDNLIDPGSPFLELSQFAGYQLYDNEEVPGGGIITGIGRVSGVECMIIANDATVKGGAYYPVTVKKQLRAQEIAMQNRLPCIYLVDSGGAYLPRQADVFPDRDHFGRTFYNQAIMSSKNIAQIAVVMGSCTAGGAYVPAMADENIIVRKQGTIFLAGPPLVKAATGEEVSAEDLGGADLHCRKSGVSDHWALDDHHALHLTRKVVRNLNYQKKLDVTIEPSEEPLFPADELYGIVGANLKRSFDVREVIARIVDGSRFTEFKAFYGDTLVTGFARIFGYPVGIVGNNGVLFSESAKKGTHFVQLCCQRNIPLLFLQNITGFMVGREYEAEGIAKDGAKMVAAVACAQVPKITLIIGGSYGAGNYGMCGRAYSPRFLYIWPNARISVMGGEQAANVLATITKDQRAREGKQFSSADEAALKEPIIKKFEEEGNPYYSSARVWDDGIIDPADTRLVLGLSFSAALNAPIEKTDFGIFRM [MCCC2] | -3.15 | -2.72 | -0.128 | 0.0208 | 53.2 | 53.7
MWDQGGQPWQQWPLNQQQWMQSFQHQQDPSQIDWAALAQAWIAQREASGQQSMVEQPPGMMPNGQDMSTMESGPNNHGNFQGDSNFNRMWQPEWGMHQQPPHPPPDQPWMPPTPGPMDIVPPSEDSNSQDSGEFAPDNRHIFNQNNHNFGGPPDNFAVGPVNQFDYQHGAAFGPPQGGFHPPYWQPGPPGPPAPPQNRRERPSSFRDRQRSPIALPVKQEPPQIDAVKRRTLPAWIREGLEKMEREKQKKLEKERMEQQRSQLSKKEKKATEDAEGGDGPRLPQRSKFDSDEEEEDTENVEAASSGKVTRSPSPVPQEEHSDPEMTEEEKEYQMMLLTKMLLTEILLDVTDEEIYYVAKDAHRKATKAPAKQLAQSSALASLTGLGGLGGYGSGDSEDERSDRGSESSDTDDEELRHRIRQKQEAFWRKEKEQQLLHDKQMEEEKQQTERVTKEMNEFIHKEQNSLSLLEAREADGDVVNEKKRTPNETTSVLEPKKEHKEKEKQGRSRSGSSSSGSSSSNSRTSSTSSTVSSSSYSSSSGSSRTSSRSSSPKRKKRHSRSRSPTIKARRSRSRSYSRRIKIESNRARVKIRDRRRSNRNSIERERRRNRSPSRERRRSRSRSRDRRTNRASRSRSRDRRKIDDQRGNLSGNSHKHKGEAKEQERKKERSRSIDKDRKKKDKEREREQDKRKEKQKREEKDFKFSSQDDRLKRKRESERTFSRSGSISVKIIRHDSRQDSKKSTTKDSKKHSGSDSSGRSSSESPGSSKEKKAKKPKHSRSRSVEKSQRSGKKASRKHKSKSRSR [PNISR] | -6.44 | -8.27 | 0.456 | -0.83 | 59.9 | 54.5
MWGSDRLAGAGGGGAAVTVAFTNARDCFLHLPRRLVAQLHLLQNQAIEVVWSHQPAFLSWVEGRHFSDQGENVAEINRQVGQKLGLSNGGQVFLKPCSHVVSCQQVEVEPLSADDWEILELHAVSLEQHLLDQIRIVFPKAIFPVWVDQQTYIFIQIVALIPAASYGRLETDTKLLIQPKTRRAKENTFSKADAEYKKLHSYGRDQKGMMKELQTKQLQSNTVGITESNENESEIPVDSSSVASLWTMIGSIFSFQSEKKQETSWGLTEINAFKNMQSKVVPLDNIFRVCKSQPPSIYNASATSVFHKHCAIHVFPWDQEYFDVEPSFTVTYGKLVKLLSPKQQQSKTKQNVLSPEKEKQMSEPLDQKKIRSDHNEEDEKACVLQVVWNGLEELNNAIKYTKNVEVLHLGKVWIPDDLRKRLNIEMHAVVRITPVEVTPKIPRSLKLQPRENLPKDISEEDIKTVFYSWLQQSTTTMLPLVISEEEFIKLETKDGLKEFSLSIVHSWEKEKDKNIFLLSPNLLQKTTIQVLLDPMVKEENSEEIDFILPFLKLSSLGGVNSLGVSSLEHITHSLLGRPLSRQLMSLVAGLRNGALLLTGGKGSGKSTLAKAICKEAFDKLDAHVERVDCKALRGKRLENIQKTLEVAFSEAVWMQPSVVLLDDLDLIAGLPAVPEHEHSPDAVQSQRLAHALNDMIKEFISMGSLVALIATSQSQQSLHPLLVSAQGVHIFQCVQHIQPPNQEQRCEILCNVIKNKLDCDINKFTDLDLQHVAKETGGFVARDFTVLVDRAIHSRLSRQSISTREKLVLTTLDFQKALRGFLPASLRSVNLHKPRDLGWDKIGGLHEVRQILMDTIQLPAKYPELFANLPIRQRTGILLYGPPGTGKTLLAGVIARESRMNFISVKGPELLSKYIGASEQAVRDIFIRAQAAKPCILFFDEFESIAPRRGHDNTGVTDRVVNQLLTQLDGVEGLQGVYVLAATSRPDLIDPALLRPGRLDKCVYCPPPDQVSRLEILNVLSDSLPLADDVDLQHVASVTDSFTGADLKALLYNAQLEALHGMLLSSGLQDGSSSSDSDLSLSSMVFLNHSSGSDDSAGDGECGLDQSLVSLEMSEILPDESKFNMYRLYFGSSYESELGNGTSSDLSSQCLSAPSSMTQDLPGVPGKDQLFSQPPVLRTASQEGCQELTQEQRDQLRADISIIKGRYRSQSGEDESMNQPGPIKTRLAISQSHLMTALGHTRPSISEDDWKNFAELYESFQNPKRRKNQSGTMFRPGQKVTLA [PEX1] | -0.296 | -0.803 | -0.0568 | -0.083 | 51.2 | 50.6
MWIPVVGLPRRLRLSALAGAGRFCILGSEAATRKHLPARNHCGLSDSSPQLWPEPDFRNPPRKASKASLDFKRYVTDRRLAETLAQIYLGKPSRPPHLLLECNPGPGILTQALLEAGAKVVALESDKTFIPHLESLGKNLDGKLRVIHCDFFKLDPRSGGVIKPPAMSSRGLFKNLGIEAVPWTADIPLKVVGMFPSRGEKRALWKLAYDLYSCTSIYKFGRIEVNMFIGEKEFQKLMADPGNPDLYHVLSVIWQLACEIKVLHMEPWSSFDIYTRKGPLENPKRRELLDQLQQKLYLIQMIPRQNLFTKNLTPMNYNIFFHLLKHCFGRRSATVIDHLRSLTPLDARDILMQIGKQEDEKVVNMHPQDFKTLFETIERSKDCAYKWLYDETLEDR [TFB2M] | 0.218 | 1 | -0.038 | 0.194 | 50.5 | 50.7

From the supplement of paper PMC5998384
